From FireProtDB (doi:10.1016/0022-2836(82)90184-x)

Conditions: Escherichia coli (strain K12), 25 °C, GdnHCl, CD, reversible: yes, whole UniProt chain shown

B1: Tryptophan synthase alpha chain wild type, P0A877 (protein)
chain: MERYESLFAQLKERKEGAFVPFVTLGDPGIEQSLKIIDTLIEAGADALELGIPFSDPLADGPTIQNATLRAFAAGVTPAQCFEMLALIRQKHPTIPIGLLMYANLVFNKGIDEFYAQCEKVGVDSVLVADVPVEESAPFRQAALRHNVAPIFICPPNADDDLLRQIASYGRGYTYLLSRAGVTGAENRAALPLNHLVAKLKEYNAAPPLQGFGISAPDQVKAAIDAGAAGAISGSAIVKIIEQHINEPEKMLAALKVFVQPMKAATRS
unfolding free energy (pH 5.5, acetate 0.05 M): 5.2 kcal/mol | unfolding free energy (pH 7, Potassium phosphate 0.01 M): 8.8 kcal/mol | unfolding free energy (pH 9, Tris-HCl 0.025 M): 4.9 kcal/mol
